The values below come from article PMC5797828 (Cancer Science, 2017).

In the assay the target is T1, Human γ-catenin, MYC/DDK-Tag (recombinant) (human, UniProt P14923 1-745).
T1 sequence (looked up): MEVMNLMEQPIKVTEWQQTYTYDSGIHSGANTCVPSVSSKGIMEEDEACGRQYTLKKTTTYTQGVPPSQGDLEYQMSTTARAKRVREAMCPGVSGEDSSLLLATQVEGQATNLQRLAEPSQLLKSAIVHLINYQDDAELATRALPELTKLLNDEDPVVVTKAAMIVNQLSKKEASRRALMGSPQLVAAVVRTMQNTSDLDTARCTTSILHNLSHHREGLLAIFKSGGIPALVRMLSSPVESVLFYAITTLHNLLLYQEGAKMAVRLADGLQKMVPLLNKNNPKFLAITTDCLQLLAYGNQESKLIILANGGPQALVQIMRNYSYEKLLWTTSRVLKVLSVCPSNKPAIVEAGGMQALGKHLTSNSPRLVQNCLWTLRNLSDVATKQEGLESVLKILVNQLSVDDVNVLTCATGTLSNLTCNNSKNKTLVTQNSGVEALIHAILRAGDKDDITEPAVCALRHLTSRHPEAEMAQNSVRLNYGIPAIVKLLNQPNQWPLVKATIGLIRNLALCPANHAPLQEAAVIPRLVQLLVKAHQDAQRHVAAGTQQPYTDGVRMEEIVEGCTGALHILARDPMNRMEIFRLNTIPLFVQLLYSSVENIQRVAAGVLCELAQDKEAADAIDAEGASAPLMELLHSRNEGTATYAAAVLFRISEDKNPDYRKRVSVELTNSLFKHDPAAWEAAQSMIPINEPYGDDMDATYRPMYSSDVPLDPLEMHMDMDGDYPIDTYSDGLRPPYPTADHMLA
The experiment in a line: SPR. (Surface plasmon resonance follows binding to a sensor surface in real time, without labels.)

B1: Human PRDM14, GST-Tag at N-terminus (GST-PRDM14) (natural protein, UniProt Q9GZV8 1-571, looked up)
chain: MALPRPSEAVPQDKVCYPPESSPQNLAAYYTPFPSYGHYRNSLATVEEDFQPFRQLEAAASAAPAMPPFPFRMAPPLLSPGLGLQREPLYDLPWYSKLPPWYPIPHVPREVPPFLSSSHEYAGASSEDLGHQIIGGDNESGPCCGPDTLIPPPPADASLLPEGLRTSQLLPCSPSKQSEDGPKPSNQEGKSPARFQFTEEDLHFVLYGVTPSLEHPASLHHAISGLLVPPDSSGSDSLPQTLDKDSLQLPEGLCLMQTVFGEVPHFGVFCSSFIAKGVRFGPFQGKVVNASEVKTYGDNSVMWEIFEDGHLSHFIDGKGGTGNWMSYVNCARFPKEQNLVAVQCQGHIFYESCKEIHQNQELLVWYGDCYEKFLDIPVSLQVTEPGKQPSGPSEESAEGYRCERCGKVFTYKYYRDKHLKYTPCVDKGDRKFPCSLCKRSFEKRDRLRIHILHVHEKHRPHKCSTCGKCFSQSSSLNKHMRVHSGDRPYQCVYCTKRFTASSILRTHIRQHSGEKPFKCKYCGKSFASHAAHDSHVRRSHKEDDGCSCSICGKIFSDQETFYSHMKFHEDY
For the molecule B1, the binding result is “binds”.
